Biological target: human BKCa (Slo1) RCK1 domain (322IIE...HDP667) carrying the D362A/367A mutations (human)
Test: SEC

- stoichiometry N: > 16
Substance: human BKCa (Slo1) RCK1 domain (322IIE...HDP667) carrying the D362A/367A mutations (domain or fragment)

From publication PMC2912072
